Molecular target: integrin alpha(IIb)beta(3) (UniProt P08514)
Test: cell-based or functional assay

B1: trimucrin variant RR (protein)
chain: EAGEECDCGSPENPCCDAATCKLRPGAQCAEGLCCDQCRFKKKRTICRRAKGDRRDDRCTGQSADCPRNRLYG
B1 was tested, and the IC50: platelet aggregation was 52.5 nM and the Ratio (RR/corresponding protein) of IC50 for platelet aggregation (ratio (RR/corresponding protein)) was 1.

— patent publication EP4592322A1
